Results reported in the supplement of paper PMC12042874.
± gives the uncertainty stated by the source.

Legend:
[1] = amyloid nucleation score (Sup35N fusion, yeast selection) (log enrichment); library NNK2; higher = more nucleation; inactive = no reads after selection
How it was run: (§1)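 DiMSum was used to calculate nucleation scores as log enrichment of output over input reads, centred on the mode score of non-aggregating sequences. Sequences with fewer than 100 input reads were not scored. Input and output came from Illumina sequencing of plasmid inserts in psi-negative yeast expressing peptides of 20 random codons fused to Sup35N, induced 24 hours with 100 μM copper sulfate and then grown 7 days at 30°C on medium lacking adenine and uracil.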

[2] = amyloid nucleation score (Sup35N fusion, yeast selection) (log enrichment); library NNK3; higher = more nucleation; inactive = no reads after selection
How it was run: as §1

Row | Substance | amyloid nucleation score [1] | amyloid nucleation score [2]
1 | YFFRVSYVEFVRCFGFSCRW | -0.846 ± 0.41 | 
2 | PAIYILLWAYSRSSACWLTA | inactive | 
3 | ILKIYVGQSSPLYFACLHIK | inactive | 
4 | RSSGLIGLGWKQI | -1.67 ± 0.75 | 
5 | LLYCCLRWMDSIQGLRPAFE | 1.1 ± 0.61 | 
6 | FYRLLWSRNCTEVR | -1.43 ± 0.75 | 
7 | MLGVSQCVVMVVAGWA | 1.4 ± 0.16 | 
8 | FNGSGARGSGRMYAILYKMS | 0.422 ± 0.56 | 
9 | DSIARYCVTYLWCNLHLLVK | 4.01 ± 0.13 | 
10 | QLVLKVRLWVDGLYVLEWGW | -0.042 ± 0.49 | 
11 | SYVAFLSTTRASSMI | inactive | 
12 | AYYCLRDLEVEYKVGYGSRL | 2.64 ± 0.21 | 
13 | VILVSVASINSRCVIGFSKF | 4.64 ± 0.07 | 
14 | IMYLLGKGLWTVAVYPSRYP | -0.806 ± 0.61 | 
15 | SALCAYIQSLFNDCRTLDKW | -0.5 ± 0.44 | 
16 | MDTSYMVLCYKSQRRRSGSR | 0.776 ± 0.2 | 
17 | NNFRWNVMVCYAFQGYSGVK | 2.64 ± 0.068 | 
18 | CVSDCD | 3.45 ± 0.14 | 
19 | NKSGDSQLLRVYYIVLVFMW | -1.08 ± 0.62 | 
20 | WFIILRLIYVYGTNCAVYMV | -0.003 ± 0.42 | 
21 | NICLGMCLYHGVSDAVDQSR | 7.971 ± 0.055 | 

Row | Substance | amyloid nucleation score [1] | amyloid nucleation score [2]
22 | NRVGSIPIGPVFTADVAIVL | 4.16 ± 0.091 | 
23 | DSRCIDTVFNWYEHTSSRYR | -0.287 ± 0.55 | 
24 | SDVYLTICHFFGHNLKVLPR | 1.38 ± 0.26 | 
25 | CVGDAALWWVVFIYGEHSRV | 0.022 ± 0.41 | 
26 | LKCSR |  | inactive
27 | SCRLSISFTGAGNVRCAKMM |  | inactive
28 | GSSYTGTEVVCKLDFSHVFR |  | 0.92 ± 0.13
29 | SGVLLFGVSRMHQR |  | 0.203 ± 0.28
30 | MVIAPGEKTNNLSSAHRWSN |  | inactive
31 | LWDRVNCFYFRDEGDELEER |  | inactive
32 | YPLSPRLLRTTTMHSTQGVG |  | inactive
33 | SSNDPQHHVDAGEADQRSRV |  | inactive
34 | CSLRPNSERTSVIYNALHVN |  | inactive
35 | CVAYSRTEVRFYRYEHLWV |  | 1.18 ± 0.12
36 | GSMIFFSICSHFLYLLHTYT |  | inactive
37 | SCAYGLGCMLMVKHN |  | inactive
38 | RLIWVDLALMFMFMYFLVRQ |  | inactive
39 | HYMLGSLSPVWLFFL |  | inactive
40 | VPIRECTMLSSMSWTGEPSY |  | inactive
41 | FNATCVVGHQVSVCNPWDAH |  | inactive
42 | HVIFFYILAFYNHSMGRTAV |  | inactive

Row | Substance | amyloid nucleation score [1] | amyloid nucleation score [2]
43 | SSGFSKSKYYICVLQFVGVV |  | inactive
44 | FSKVTFHSCGIQCERQVKNN |  | inactive
45 | LWLFIAY |  | inactive
46 | NCPSWGGFGIATSGQR |  | inactive
47 | GCVLCGIPSAWRSPGASSDA |  | 1.05 ± 0.2
48 | RYVLR |  | inactive
49 | MSTVRHVRWRQGQGKMRGRK |  | inactive
50 | FFSTQAFLDLAHTRFVNPLG |  | inactive
51 | EASLSGGYTEYVGDFMRLVT |  | inactive
52 | RSILLEGVLAFM |  | inactive
53 | TAPFVYLLWRGKCSKAHSRY |  | inactive
54 | LLLDNITLGLWEFIRYRCGW |  | inactive
55 | SLTMNLFVRTASCGLASRVR |  | -0.541 ± 1.7
56 | LREMGLHYWGD |  | inactive
57 | YNLDDIDSITLYLAVSLCKV |  | inactive
58 | NLWLECNLESSQRSSLFTKL |  | inactive
59 | CCMVNRGTRQVSRWIVPNWR |  | inactive
60 | VAFGWDLFFNVLNLHCNVSN |  | 1.89 ± 0.069
61 | MFLGNVMTILIEMGFQKALT |  | 0.93 ± 0.17
62 | SIFFNVVLFWGVWELTQGNR |  | 0.803 ± 0.27
63 | LGNKGNEMPLRSKVKRWFLL |  | inactive

Row | Substance | amyloid nucleation score [1] | amyloid nucleation score [2]
64 | RDWKEDLFFF |  | inactive
65 | SMNTHGCFYRRYLSESPFEC |  | inactive
66 | IYIKCFNVSFLRSADWSKCA |  | inactive
67 | NDHSEGTCSIRERQTSRWML |  | inactive
68 | YSTMRS |  | inactive
69 | LTFVHNWFDPLCLHRNSAMN |  | inactive
70 | ELFDWTFLFPDSSINMWK |  | inactive
71 | MTESNGGFPG |  | inactive
72 | MYWTNRHLQNIFWVKRNCGM |  | inactive
73 | MSGVDYLTRLFVYTNESDAV |  | inactive
74 | RSILVFHSDRLKYGYLMIDV |  | inactive
75 | QGISQPRHCFY |  | inactive
76 | YSFCVSVATEQLKHLSSLWH |  | inactive
77 | NFFMGLLSSRSMGLTWYWCM |  | inactive
78 | RPKPNRSRTIASQLETKSGW |  | -0.727 ± 1.1
79 | DPFVRDIWQREYQWES |  | inactive
80 | CLSLDQWWLHRYDHLVLGET |  | inactive
81 | LWYFRFNFTAYNYFLWYDTS |  | inactive
